Results reported in patent US20230381333A1 (HANMI PHARM, published 2023).
Bridge positions count the residues as written; N and C are the ends. Square brackets hold non-standard residues; d marks the D form. Ends that are not written are not given here. * marks the point of attachment. Acetyl(2-(4-imidazolyl)) = O=C(Cc1c[nH]cn1)*; Aib = CC(C)(N)C(=O)O

T1: human GIP receptor (human, UniProt P48546 22-466)
T1 sequence (looked up): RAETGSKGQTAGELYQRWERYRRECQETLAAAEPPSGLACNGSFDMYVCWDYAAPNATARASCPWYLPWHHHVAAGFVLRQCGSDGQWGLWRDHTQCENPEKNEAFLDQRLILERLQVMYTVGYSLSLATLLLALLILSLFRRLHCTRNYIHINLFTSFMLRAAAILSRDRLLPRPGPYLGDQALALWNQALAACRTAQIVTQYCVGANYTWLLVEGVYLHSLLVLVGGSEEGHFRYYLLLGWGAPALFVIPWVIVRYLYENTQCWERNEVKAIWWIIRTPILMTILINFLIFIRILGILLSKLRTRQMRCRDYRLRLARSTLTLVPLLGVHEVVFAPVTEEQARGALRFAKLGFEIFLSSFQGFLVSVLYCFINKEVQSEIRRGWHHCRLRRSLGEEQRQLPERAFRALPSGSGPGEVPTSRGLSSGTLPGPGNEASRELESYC


Assays:
Assay in all cases: cell-based or functional assay
human GCG receptor = human GCG receptor (human, UniProt P47871 26-477)
human GIP receptor = target: T1, human GIP receptor
human GLP-1 receptor = human GLP-1 receptor (human, UniProt P43220 24-463)

human GCG receptor, sequence (P47871 26-477): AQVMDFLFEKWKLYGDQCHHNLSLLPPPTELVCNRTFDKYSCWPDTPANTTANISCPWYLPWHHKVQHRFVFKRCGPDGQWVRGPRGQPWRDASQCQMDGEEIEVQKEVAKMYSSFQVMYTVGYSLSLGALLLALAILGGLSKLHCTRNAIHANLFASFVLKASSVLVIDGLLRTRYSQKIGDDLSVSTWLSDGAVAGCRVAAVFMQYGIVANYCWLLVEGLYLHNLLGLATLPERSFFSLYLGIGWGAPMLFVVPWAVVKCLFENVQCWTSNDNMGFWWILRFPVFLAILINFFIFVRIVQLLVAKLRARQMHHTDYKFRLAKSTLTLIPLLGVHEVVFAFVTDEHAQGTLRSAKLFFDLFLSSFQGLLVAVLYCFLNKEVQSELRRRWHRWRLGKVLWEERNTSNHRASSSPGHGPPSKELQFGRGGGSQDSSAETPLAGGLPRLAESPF

| Binder | In vitro activity compared to native-type peptide (%), vs Glucagon (human GCG receptor) | In vitro activity compared to native-type peptide (%), vs GIP (human GIP receptor) | In vitro activity compared to native-type peptide (%), vs GLP-1 (human GLP-1 receptor) |
| --- | --- | --- | --- |
| H[Aib]QGTFTSDYSKYLDEKRQKEFVQWLLNTC (bridge 16-20) [triple agonist of SEQ ID NO: 51] | 2% | 0.1% | 14.4% |
| H[Aib]EGTFTSDYSIAMDEIHQKDFVDWLLAEC (bridge 16-20) [triple agonist of SEQ ID NO: 54] | 1.4% | 0.1% | 30.6% |
| H[Aib]QGTFTSDVSSYLLGQQQKEFIAWLVKGGGPSSGAPPPSC [triple agonist of SEQ ID NO: 5] | < 0.1% | < 0.1% | 42.1% |
| HGQGTFTSDCSKQLDGQAAQEFVAWLLAGGPSSGAPPPS [triple agonist of SEQ ID NO: 44] | < 0.1% | < 0.1% | 1.3% |
| HGQGTFTSDCSKYMDGQAAQDFVAWLLAGGPSSGAPPPS [triple agonist of SEQ ID NO: 45] | < 0.1% | < 0.1% | 6.6% |
| HGQGTFTSDCSKYLDGQRAQDFVNWLLAGGPSSGAPPPS [triple agonist of SEQ ID NO: 48] | < 0.1% | < 0.1% | 1.5% |
| HGQGTFTSDCSKYLDGQRAQEFVAWLLAGGPSSGAPPPS [triple agonist of SEQ ID NO: 47] | < 0.1% | < 0.1% | 2.4% |
| HGQGTFTSDCSKYLDEQHAQEFVAWLLAGGPSSGAPPPS [triple agonist of SEQ ID NO: 46] | < 0.1% | < 0.1% | 1.4% |
| Y[Aib]QGTFTSDYSKYLDEKRAKEFVQWLLDHHPSSGQPPPSC (bridge 16-20) [triple agonist of SEQ ID NO: 42] | 206% | 7.8% | 33.9% |
| [Acetyl(2-(4-imidazolyl))][Aib]QGTFTSDKSSYLDERAAQDFVQWLLDGGPSSGAPPPSS [triple agonist of SEQ ID NO: 38] |  |  | 2.3% |
| H[Aib]QGTFTSDYSIAMDEIHQKDFVNWLLNTKC (bridge 16-20) [triple agonist of SEQ ID NO: 35] | < 0.1% | 1.3% | 7.5% |
| H[Aib]QGTFTSDYSKYLDEKRAKEFVQWLLDHHPSSGQPPPSC (bridge 16-20) [triple agonist of SEQ ID NO: 50] | 50.5% | 2.7% | 67.4% |
| H[Aib]QGTFTSDYSKYLDGQHAQCFVAWLLAGGGPSSGAPPPS [triple agonist of SEQ ID NO: 39] | 0.53% | < 0.1% | 13.9% |
| H[Aib]QGTFTSDYSKYLDEKRQKEFVQWLLDTC (bridge 16-20) [triple agonist of SEQ ID NO: 52] | 7.5% | 0.3% | 44.1% |
| [Acetyl(2-(4-imidazolyl))][Aib]QGTFTSDYSICMDEIHQKDFVNWLLNTK (bridge 16-20) [triple agonist of SEQ ID NO: 49] | < 0.1% | 3.3% | 29.8% |
| H[Aib]QGTFTSDKSKYLDECAAQDFVQWLLDGGPSSGAPPPS [triple agonist of SEQ ID NO: 41] | < 0.1% | < 0.1% | 34.3% |
| H[Aib]EGTFTSDYSIAMDEIHQKDFVNWLLAQC (bridge 16-20) [triple agonist of SEQ ID NO: 53] | 8.4% | 1.3% | 161% |
| H[Aib]QGTFTSDYSKYLDEKRQKEFVNWLLAQC (also: ring formation (underlined residues), positions not given here) [triple agonist of SEQ ID NO: 56] | 4.9% | 0.8% | 57.9% |
| H[Aib]QGTFTSDVSSYLDGQAAKEFVAWLLKGC [triple agonist of SEQ ID NO: 6] | < 0.1% | < 0.1% | 17% |
| H[Aib]QGTFTSDYSIAMDEIHQKDFVNWLLAQC (bridge 16-20) [triple agonist of SEQ ID NO: 55] | 0.7% | 2.4% | 27.1% |
| H[Aib]QGTFTSDKSKYLDERACQDFVQWLLDGGPSSGAPPPS [triple agonist of SEQ ID NO: 40] | < 0.1% | < 0.1% | 75.2% |
| H[Aib]QGTFTSDVSSYLDGQAAKEFIAWLVKGC [triple agonist of SEQ ID NO: 1] | < 0.1% | < 0.1% | 3.2% |
| Y[Aib]QGTFTSDYSKYLDEKRAKEFVQWLLDHHCSSGQPPPS (bridge 16-20) [triple agonist of SEQ ID NO: 43] | 88.4% | 3.7% | 12.6% |
| H[Aib]QGTFTSDYSKYLCEKRQKEFVQWLLNGGPSSGAPPPSG (bridge 16-20) [triple agonist of SEQ ID NO: 36] | 0.39% | 0.2% | 37.4% |
| H[Aib]QGTFTSDYSKYLDEKRQKEFVNWLLAQKC (bridge 16-20) [triple agonist of SEQ ID NO: 34] | 0.92% | 0.6% | 19.1% |
| H[Aib]QGTFTSDYSKYLDECRQKEFVQWLLNGGPSSGAPPPSG (bridge 16-20) [triple agonist of SEQ ID NO: 37] | 6.21% | 2.2% | 236% |
| H[Aib]QGTFTSDVSSYLLGQQQKEFIAWLVKGC [triple agonist of SEQ ID NO: 4] | < 0.1% | < 0.1% | 8.5% |
